Assay results as given in publication PMC4550541 (Protein Engineering, Design and Selection, 2015).

Biological target: HER2 (extracellular domain only), soluble, recombinantly expressed, biotinylated (human) (UniProt P04626)
Experiment: BLI; Octet Red; biotinylated HER2 (10 μg/ml) loaded on streptavidin biosensors, DARPins in solution (eight concentrations, highest 50 nM); PBS pH 7.4, 0.01% BSA, 0.01% Tween 20; 1:1 Langmuir model, global kinetic fit

Kd: 0.39 nM
koff: 0.00037 s⁻¹
kon: 950000 M⁻¹ s⁻¹
B1: DARPin F1 (designed binder)
chain: DLGKKLLEAARAGEDDEVRVLMANGADVNAKDEYGLAPLYHATAHGHLEIVEVLLKNGADVNAVDAIGFTPLHLAAFIGHLEIAEVLLRHGADVNAQDKFGKTAFDISIDNVNEDLAEILQKL
notes: source: E. coli M15 (pQE30), purified (His trap; SEC on Superdex 75 for large scale); not shown: His6, N-terminal, kept
